From patent US20190194714A1, “REAGENT FOR GLUCOSE SENSOR, GLUCOSE SENSOR, METHOD FOR MANUFACTURING GLUCOSE SENSOR, AND GLUCOSE MEASURING DEVICE” (NATIONAL INSTITUTE OF ADVANCED INDUSTRIAL SCIENCE AND …, priority 2016, published 2019)

Key:
[1] = system: Aspergillus terreus var. aureus FAD-GDH (flavin adenine dinucleotide glucose dehydrogenase), enzyme No. 1, host Pichia pastoris; assay: Michaelis constant of FAD-GDH enzyme No. 1; type: biochemical; details: 110 kDa
[2] = substrate: OC[C@H]1OC(O)[C@H](O)[C@@H](O)[C@@H]1O; assay: Michaelis constant of FAD-GDH enzyme No. 2; type: biochemical, Thermoascus crustaceus; details: other: enzyme No. 2, host Escherichia coli, 60 kDa
[3] = substrate: OC[C@H]1OC(O)[C@H](O)[C@@H](O)[C@@H]1O; assay: Michaelis constant of FAD-GDH enzyme No. 3; type: biochemical, Thermoascus crustaceus; details: other: enzyme No. 3, host Pichia pastoris, 90 kDa
[4] = substrate: OC[C@H]1OC(O)[C@H](O)[C@@H](O)[C@@H]1O; assay: Michaelis constant of FAD-GDH enzyme No. 4; type: biochemical, Thermoascus crustaceus; details: other: enzyme No. 4, host Saccharomyces cerevisiae, 90 kDa

OC[C@H]1OC(O)[C@H](O)[C@@H](O)[C@@H]1O (stereo partly shown) [glucose]
Km [1]: 82 mM

B1: Thermoascus crustaceus FAD-GDH (flavin adenine dinucleotide glucose dehydrogenase), enzyme No. 2, host Escherichia coli (Thermoascus crustaceus) (protein)
chain: TSYDYIIVGGGTSGLVVANRLSEDSSVSVLVVEAGDSVYNNPNVTGTGAYGAAFGTSIDWAYQTIKQPYAGDLTQTIRAGKALGGTSTINGMAYTRAEDVQIDAWEAIGNQGWNWSTLFPYYLKSERFQIPINAQSAAGANWNPAYHGMNGPLTTGWTYEMMNGSMAEVLNATYQNLGISYLPDVNGGKMHGYTLFPRTVNRALDVREDAARAYYYPFESSRPNLSVMLNTYGNRIVWANATNTNSVTATGVEVTLSDGTVQTIQANKEVILSAGSLISPAILERSGVGNPTVLSRFGIPLVVNLTTVGENLQDQMNTEFIYLSNATFSGQSTFLGHPTAADLFGSNVTNVAKSVQSSLPHYAATVSEASNGTMSAAVLQKLFQLQYNIIFNNPTPIAEILVAPSGSKFITEYWALLPFARGNVHIGSANPLDRPVINPNYMMFEWDMQEQIASGKFVRKLYGTAPFTNWATGEATPGYSTLPANATDGQWAQWISSVSRSNFHPVGTAAMMPRDMGGVVDSNLVVYGTNNVRVIDASVLPLQVCGHLVSTLYAVAERASDLIKAGQV
Km [2]: 4.6 mM

B2: Thermoascus crustaceus FAD-GDH (flavin adenine dinucleotide glucose dehydrogenase), enzyme No. 3, host Pichia pastoris (Thermoascus crustaceus) (protein)
chain: TSYDYIIVGGGTSGLVVANRLSEDSSVSVLVVEAGDSVYNNPNVTGTGAYGAAFGTSIDWAYQTIKQPYAGDLTQTIRAGKALGGTSTINGMAYTRAEDVQIDAWEAIGNQGWNWSTLFPYYLKSERFQIPINAQSAAGANWNPAYHGMNGPLTTGWTYEMMNGSMAEVLNATYQNLGISYLPDVNGGKMHGYTLFPRTVNRALDVREDAARAYYYPFESSRPNLSVMLNTYGNRIVWANATNTNSVTATGVEVTLSDGTVQTIQANKEVILSAGSLISPAILERSGVGNPTVLSRFGIPLVVNLTTVGENLQDQMNTEFIYLSNATFSGQSTFLGHPTAADLFGSNVTNVAKSVQSSLPHYAATVSEASNGTMSAAVLQKLFQLQYNIIFNNPTPIAEILVAPSGSKFITEYWALLPFARGNVHIGSANPLDRPVINPNYMMFEWDMQEQIASGKFVRKLYGTAPFTNWATGEATPGYSTLPANATDGQWAQWISSVSRSNFHPVGTAAMMPRDMGGVVDSNLVVYGTNNVRVIDASVLPLQVCGHLVSTLYAVAERASDLIKAGQV
Km [3]: 2.8 mM

B3: Thermoascus crustaceus FAD-GDH (flavin adenine dinucleotide glucose dehydrogenase), enzyme No. 4, host Saccharomyces cerevisiae (Thermoascus crustaceus) (protein)
chain: TSYDYIIVGGGTSGLVVANRLSEDSSVSVLVVEAGDSVYNNPNVTGTGAYGAAFGTSIDWAYQTIKQPYAGDLTQTIRAGKALGGTSTINGMAYTRAEDVQIDAWEAIGNQGWNWSTLFPYYLKSERFQIPINAQSAAGANWNPAYHGMNGPLTTGWTYEMMNGSMAEVLNATYQNLGISYLPDVNGGKMHGYTLFPRTVNRALDVREDAARAYYYPFESSRPNLSVMLNTYGNRIVWANATNTNSVTATGVEVTLSDGTVQTIQANKEVILSAGSLISPAILERSGVGNPTVLSRFGIPLVVNLTTVGENLQDQMNTEFIYLSNATFSGQSTFLGHPTAADLFGSNVTNVAKSVQSSLPHYAATVSEASNGTMSAAVLQKLFQLQYNIIFNNPTPIAEILVAPSGSKFITEYWALLPFARGNVHIGSANPLDRPVINPNYMMFEWDMQEQIASGKFVRKLYGTAPFTNWATGEATPGYSTLPANATDGQWAQWISSVSRSNFHPVGTAAMMPRDMGGVVDSNLVVYGTNNVRVIDASVLPLQVCGHLVSTLYAVAERASDLIKAGQV
Km [4]: 3.2 mM
